Reference: ChEMBL document CHEMBL1649076, “Discovery of 5-chloro-N2-[(1S)-1-(5-fluoropyrimidin-2-yl)ethyl]-N4-(5-methyl-1H-pyrazol-3-yl)pyrimidine-2,4-diamine (AZD1480) as a novel inhibitor of the Jak/Stat pathway” (J Med Chem, 2011)

Substrate: Cc1cc(Nc2nc(N[C@H](C)c3ncc(F)cn3)ncc2Cl)n[nH]1
Description: Inhibition of JAK2 using Km ATP concentration

B1: Tyrosine-protein kinase JAK2 (Homo sapiens), O60674 (protein)
chain: MGMACLTMTEMEGTSTSSIYQNGDISGNANSMKQIDPVLQVYLYHSLGKSEADYLTFPSGEYVAEEICIAASKACGITPVYHNMFALMSETERIWYPPNHVFHIDESTRHNVLYRIRFYFPRWYCSGSNRAYRHGISRGAEAPLLDDFVMSYLFAQWRHDFVHGWIKVPVTHETQEECLGMAVLDMMRIAKENDQTPLAIYNSISYKTFLPKCIRAKIQDYHILTRKRIRYRFRRFIQQFSQCKATARNLKLKYLINLETLQSAFYTEKFEVKEPGSGPSGEEIFATIIITGNGGIQWSRGKHKESETLTEQDLQLYCDFPNIIDVSIKQANQEGSNESRVVTIHKQDGKNLEIELSSLREALSFVSLIDGYYRLTADAHHYLCKEVAPPAVLENIQSNCHGPISMDFAISKLKKAGNQTGLYVLRCSPKDFNKYFLTFAVERENVIEYKHCLITKNENEEYNLSGTKKNFSSLKDLLNCYQMETVRSDNIIFQFTKCCPPKPKDKSNLLVFRTNGVSDVPTSPTLQRPTHMNQMVFHKIRNEDLIFNESLGQGTFTKIFKGVRREVGDYGQLHETEVLLKVLDKAHRNYSESFFEAASMMSKLSHKHLVLNYGVCVCGDENILVQEFVKFGSLDTYLKKNKNCINILWKLEVAKQLAWAMHFLEENTLIHGNVCAKNILLIREEDRKTGNPPFIKLSDPGISITVLPKDILQERIPWVPPECIENPKNLNLATDKWSFGTTLWEICSGGDKPLSALDSQRKLQFYEDRHQLPAPKWAELANLINNCMDYEPDFRPSFRAIIRDLNSLFTPDYELLTENDMLPNMRIGALGFSGAFEDRDPTQFEERHLKFLQQLGKGNFGSVEMCRYDPLQDNTGEVVAVKKLQHSTEEHLRDFEREIEILKSLQHDNIVKYKGVCYSAGRRNLKLIMEYLPYGSLRDYLQKHKERIDHIKLLQYTSQICKGMEYLGTKRYIHRDLATRNILVENENRVKIGDFGLTKVLPQDKEYYKVKEPGESPIFWYAPESLTESKFSVASDVWSFGVVLYELFTYIEKSKSPPAEFMRMIGNDKQGQMIVFHLIELLKNNGRLPRPDGCPDEIYMIMTECWNNNVNQRPSFRDLALRVDQIRDNMAG
Km: 0.031 µM
